From the DeepSol protein solubility set

Experiment: soluble on expression in E. coli; label from the status in PepcDB or PDB records

Sequence | soluble on expression in E. coli
MDRPLLIFSGQSNRPLAQAIAEALGLPLGKSTTLRFANDNLFVRYEESLREGDVFIVQSFVPPVQDHLMELLMMVDAAKGASAARVTAVIPYFSYARSDKKDAPRISITARLIADLLQTAGADRVLTMTLHSPQVHGFFKIPVDHLSAEPVIANYFATRVDLENAVVVAPDAGDLKRASALARRLGLPLAFIDKERVSDTEVRVRMLVGEVEGKTALIVDDEISTAGSLVEAVEALMQAGAKEVYAAATHGVYVGPALDRIAKSPVKEVAATDTCPPKEGPKLRTLTVAPLFAEAIWRIHRGESVSSLFT | soluble
MRKIIVGAFVSLDGIMQAPGGPHEDPVGGFDHGGWAAPYFDETMGQAVDEMFSKPFDLLLGRKTYDIFAAHWPYAGPDDPIGPLFDRITKYVATRNPDLRLDWQNSRTLGSDPVAMLKKLKSEEGPDLLTQGSTDFLQTLFSNDLVDEMYISYFPVVLGKGKRLFGHGAMPMAMKLLGSKVSGTGVTANKYVRSGPVVTGSFEFEQPTEAELERRRKLS | soluble
MSPRCANLALKHYLLKPVQRIPQYRLLLTDYLKNLIEDAGDYRDTQDALAVVVEVANHANDTMKQGDNFQKLMQIQYSLNGHHEIVQPGRVFLKEGILMKLSRKVMQPRMFFLFNDALLYTTPVQSGMYKLNNMLSLAGMKVRKPTQEAYQNELKIESVERSFILSASSATERDEWLEAISRAIEEYAKKRITFCPSRSLDEADSENKEEVSPLGSKAPIWIPDTRATMCMICTSEFTLTWRRHHCRACGKIVCQACSSNKYGLDYLKNQPARVCEHCFQELQKLDHQHSPRIGSPGNHKSPSSALSSVLHSIPSGRKQKKIPAALKEVSANTEDSSMSGYLYRSKGNKKPWKHFWFVIKNKVLYTYAASEVRSEI | soluble
MTSGSLQFTVLRAVNPATDAQRESMLREPGFGKYHTDHMVSIDYAEGRGWHNARVIPYGPIELDPSAIVLHYAQEVFEGLKAYRWADGSIVSFRADANAARLRSSARRLAIPELPDAVFIESLRQLIAVDKAWVPGAGGEEALYLRPFIFATEPGLGVRPATQYRYLLIASPAGAYFKGGIAPVSVWVSTEYVRACPGGTGAAKFGGNYAASLLAQAEAAENGCDQVVWLDAVERRYIEEMGGMNIFFVLGSGGSARLVTPELSGSLLPGITRDSLLQLAIDAGFAVEERRIDIDEWQKKAAAGEITEVFACGTAAVITPVARVRHGASEFRIADGQPGEVTMALRDTLTGIQRGTFADTHGWMARLG | soluble
MSLTERKQRFLRRILTYYTLKRRESKWIIDYWLRNDSKLEQVHFVQNAMFAPKAMIITTYGFDADPFLFKKGEVKTTDPEKAYHDIRLTDEPLYIELNFQGMMMDDEYLSLLEENPFRPEVAVEPKLADAAMNFIAATVNRQEEERLVRLIDEALDARDKHRFQSLSDELRIIRSQLEGHHHHHH | soluble
GPGSMAPLPRKALLAITSAHPPFWPDGKRTGLFFSEALHPFNELTAAGFEVDVASETGTFGWDEHSLTQEYLSKEDEKVLHSEHNHFMEKMNKQVFKAGDLAPHDYGLMFVCGGHGALYDFPHAKHLQNIAQDIYKRGGVIGAVCHGPAMLPGIHDENGDSVIKDKTVTGFTTKGEIMIKVIDKMREDHLHTIADMAQTANAEYVPPEDPWDDFCKVDGRIVTGANPQSATNTARDTIKVYEGIVNE | soluble
QDLLLSYKGKLKNDSIEGEFRQGRFGTMMSLYRGLDAAKPYRPQTPVPPFPYDVTDVKILHKTGGFTIAGTLTAPKDANKTKGTVILISGSGLQDRDETIFGHKPFAVLADQLTRHGYAVLRCDDRGFGESAGDASQATTDTLAGDIESELAYLRQHYPRLTDKVFLIGHSEGGIIAPMVARRVGGIAGLVLVGAPSVKGAEILLSQNAAMDEFATGQPQSQAKRAALEELIRQATAPGDTSDIRTRIESYCRSNASVLFPQAMTDEMKEQGIKLMTEQLYTPWMRHFLTYDPAPLLDVTSGEGSHPLPPTMAIYGGRDKQVLHEVNMSKMKSLLGIETGNTTNKVVYLPEVNHIMQPAEFGTPDEYAFLNRTVDTELMEIVCSFLDSL | not soluble
AHHHHHHGSEKPRFKGHLKLLILKLLEENPLHGYGIMTRLEETFGIKVSPGAIYPILSSLRKSGLIEVAGEGKREKKLHKITEKGREYLRKHEDEVKEALEIANKLKEFSELGGKEVAQVLREVVENIDKLSEEQKAALAREFSNFVKRIKLILLGGEQYGGNNSGEPR | soluble
MSSGNIHIHSMTGFANAAAECGSKRINLDLRAVNHRFLDIQIRMPDDLRYLESGIREKISSHIARGKVECKIQIQDAENGSQSLELNRDLVGQLAEINKDLRKHHDLAKLGVADILRFPGVLASQRENTEELAKSITELTEKALKDFTAARKREGKKLGEHLLQRLEAMEEIIDALSELFPTLLETHKEKIRARLVEAVGSIDNDRLQQEFALFIQKSDIDEEFSRLRTHIAEVRRIVTEHKGSSGKRLDFLMQELNREANTLGSKSIAAECTQASVELKVLIEQMREQVQNIE | not soluble
MHTQVHTARLVHTADLDSETRQDIRQMVTGAFAGDFTETDWEHTLGGMHALIWHHGAIIAHAAVIQRRLIYRGNALRCGYVEGVAVRADWRGQRLVSALLDAVEQVMRGAYQLGALSSSARARRLYASRGWLPWHGPTSVLAPTGPVRTPDDDGTVFVLPIDISLDTSAELMCDWRAGDVW | soluble
NRYAKLCMEREINKRTVLMQEMELENYKKINQANDKYMELLHNSNHYMRTVYGLLEQDNKDEAINIMDSVLTEYEEGELIEYSTNSILNTILSEYYDKSKTNHIEFNIFVEPGFNIECVESMDLVAMVSNLISNAYEAALKSDEKKIKVQMYMQNDGSFIIIKIENSFSGEIVSQGDRLLTTKKDGNIHGVGIESVEKVAEKYDGWVSTSWGNKSFRTMLVLNNSYVV | not soluble
AAQTTAAVEDMSMGAEDAPVTIVEYASFTCPHCANFEKEVLTPLKRDYIDTGKVRFTFREVYFDRYGLWAAMVARCGGEMRYFGIADLIFEQQKEWVTNDPAQVATNLRKIGKTAGLDDAALDACMNDQAKAEAMVAAFQKNSQADDITATPSLIINGTKHSNMSYEELKKIIDAELAK | not soluble
SLLPQAVTQFEELVGMAEALLKGGGTMSTSASTLWRATNNSSPDSFASTCSNSNSNSSSPVSLKPEEEHQTDEKQFQIEKWQIARCNKSKPQKFINDLMQVLYTNEYMATHSLTGAKSSTSRDKAVKPAMNQNEVQEIIGVTKQLFPNTDDVSIRRMIGQKLNNCTKKPNLSKNLNSQDIK | soluble
MGSDKIHHHHHHLTLSIEHLTGGYTQTPVIKDINFEVKNGELLGLIGLNGAGKSTTINHVIGLMRPMKGKIILDEIDLEQNPTQYKTKLAYIPELPILYDELTLKEHIELTIKAYEMNSEKAWQQAHKLLKTFRLENKLDWFPANFSKGMRQKVMIVCAFITDAELFVVDEPFLGLDPLAIDDLLKVINEKKQQGASILMSTHVLDTAEKYCDRFALLNEGELKAVGTLADFQKQFNLPNSSLNDIYLTIAKGERDE | not soluble
MVKTAVLMATYNGEIFISEQLDSIRQQTLKPDYVLLRDDCSTDETVNVVNNYIAKHELEGWKIVKNDKNLGWRLNFRQLLIDVLAYEVDYVFFSDQDDIWYLDKNERQFAIMSDKPQIEVLSADVDIKTMSTEASVPHFLTFSSSDRISQYPKVYDYQTFRPGWTIAMKRDFAQAIADNWTFGANISHDNLIETTASIIGNGYNLNESVGVHIRYGGNASGNSKFVLNWKSPKTQHITGLKTFVDFYETMQKVVNKYQNDVALNQRLAFEKERLEASKLSLIHNSAFVIKNWRLYNSNSGRMRDLLFAFKKLEHHHHHH | soluble
MKNELICYKQMPVWTKDNLPQMFQEKHNTKVGTWGKLTVLKGKLKFYELTENGDVIAEHIFTPESHIPFVEPQAWHRVEALSDDLECTLGFYCKKEDYFSKKYNTTAIHGDVVDAAKIISPCKVLDLGCGQGRNSLYLSLLGYDVTSWDHNENSIAFLNETKEKENLNISTALYDINAANIQENYDFIVSTVVFMFLNRERVPSIIKNMKEHTNVGGYNLIVAAMSTDDVPCPLPFSFTFAENELKEYYKDWEFLEYNENMGELHKTDENGNRIKMKFATMLARKKLEHHHHHH | not soluble
MGSDKIHHHHHHVPDITIATERCIGCAECARDCPTGIIRMENGIPAVAPRREKRCIGCLHCVTVCPCGALSFRGVTPESCTPLKNRFPQPEALEILMKGRRSVRRFLPEAVDSALIRRTVDAAAHAPSGKNQRGLLFTVVDDPQTMNRLRHDTVEAVREALADGCSHPQTAFFQAALARWDTGTDIIFRNAPHLLWVTAPRTNTTAQADVHVALTYFELMAAACGLGTLWCGFATWAMSEIAPRIARGLGIPEAHTSGYVMLFGKPAVRYHRTAERGCDGFNRVVWPPAT | not soluble
MAAIDLNSDLGESYGAWRMGDDEAMLAIVSSANIACGFHAGDPAGIYRTVKAAAEKGVVVGAHVSYPDRVGFGRRDLDATSEELIADVIYQIGALKGVAAAAGTTVRYVKPHGALYNRIANDAKQGQAVIDGIKAIDPSLVLMGLANAPILDLARKAGLAVVAEAFADRAYTPEGQLVSRREAGAVLHDAAKIAERMVQLAREGTLEAIDGSIIKIEAQSICVHGDSPGAVAIAQEIRRRFEADGIAIRSFASDRLEHHHHHH | not soluble
MDLGEFPAPDPSVLVQNFNISDFNGKWYITSGLNPTFDAFDCQLHEFHTEGDNKLVGNISWRIKTLDSGFFTRSAVQKFVQDPNQPGVLYNHDNEYLHYQDDWYILSSKIENKPEDYIFVYYRGRNDAWDGYGGAVVYTRSSVLPNSIIPELEKAAKSIGRDFSTFIRTDNTCGPEPRSHHHHHH | soluble
MAHHHHHHMGTLEAQTQGPGSMIFNVLTIFPQMFPGPLGVSNLGSALKKGLWTLNVFDIRAFANNKHNTVDDTPYGGGPGMLLRADVLGRCIDEVLSLHPNTKLMFTSPRGVSFTQDIARQTMNFDNITLLCGRFEGIDERVVDFYKLQEVSIGDYVLSGGELAAMVIIDTCVRMVPGVIGNAESLKQESMEGSLEYPQYTRPASWKGMEVPEVLLTGNHGEIEKWRRNASLSITAARRPDLLKDRYGENDVE | soluble
MGSDKIHHHHHHMKPSGSAICIETAAMTMRFGSFTALDAVSIKVQAGSFHALLGENGAGKSTLVKCIMGFYRQTSGQLLVEDREVEIASPRDAAALGLGMVYQHFTLVPSLTGAENLVISRNAVPAMINWRRERQALNDFMATMPFQIPLERPVRELSAGEKQKLEIIKQLYLGRRFLILDEPTSVLTPAEADDMLGLVRSMTERGALTVLMISHKFHEVRKFADAVSVLRRGKLVGSGRTADLTTQEMAAMMIGDVKLAELDSRLPVVEASPSILSIRGMKTRDRSGLKSIEVDDLKVRAGEIVGIAGISGNGQKELAEVLAGQRPAEAGDITVKDRPYTATRQETRAANVRFIPEEPLLNACAPRMSVAENLSFRDFDVDAKGKTRFWLNAKAMRETAGRLIADFKVKTASPASPIASLSGGNVQRAVLARELTGDVDLLVVSNPCFGLDFSAVAEIRARIMKARNNGSAVLLFSEDLDELMEMSDRIVVMSDGRLVYETPARGADIAVIGAHMAGHA | not soluble
MAHHHHHHMTKSYLNQDQQLRAQQVYTTHKHLKELSMATKEALTYHDKYLAAMEHVMSCLLNNSDALEDARKHLTQEAAVDIQPTFPTAGRLAAAYSNWRVSAELHMMRTELEFLKEVSTTGHEAVKKTKNAVHGLEKVAKKCAHVNSPEFEAKISSKSGKALEKLLHEQRETNTMMMSIENAIKKDMMSLATSWSAKLVTRGDALYTAFRSLGCRTVACFPTTDPTLSQGMPPPAAGYVLSQPSSASTSVPYSGGTAVGHGTPSTLPAAQSVECAAVPLSSAGEGAAAGVKLEFNLNEGKPVSR | soluble
